Data from patent publication US20240352438A1, “MEANS AND METHODS FOR DETOXIFYING OCHRATOXIN A” (DSM Austria GmbH, priority 2021, published 2024).

Columns and labels:
[1] = OTA detoxification activity assay (specific activity, fluorescence reduction ex/em 390/450 nm); assay type: biochemical; details: for Specific OTA detoxification activities in U/g at pH 6.0 / Specific OTA detoxification activities in U/g at pH 7.5: 37° C., 200 ng/mL OTA, 100 mM sodium phosphate buffer; for Specific OTA detoxification activities in % compared to the enzyme of SEQ ID NO: 2, pH 6.0 / Specific OTA detoxification activities in % compared to the enzyme of SEQ ID NO: 2, pH 7.5: SEQ ID NO: 2 = 100%
Summary of the method: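 Recombinant enzyme preparation with 200 ng/mL OTA in 100 mM sodium phosphate, at pH 6.0 and pH 7.5, 37° C. Degradation followed as the fall in fluorescence at ex/em 390/450 nm. Specific activity taken from the initial linear slope; one unit degrades 1 μmol OTA per min at a starting OTA of […].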

[2] = Thermostability assay: residual OTA detoxification activity after 10 min incubation at 45-99° C. (T50); assay type: physicochemical; details: 0.1 mg/mL protein in 20 mM Tris-HCl pH 7.5, residual OTA detoxification activity relative to 4° C. reference aliquot
Summary of the method: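 Purified enzyme at 0.1 mg/mL in 20 mM Tris-HCl pH 7.5 was heated 10 min at 45–99 °C, then held at 4 °C. Residual OTA detoxification activity was expressed relative to an aliquot kept at 4 °C throughout; T50 is the temperature range giving 50% activity loss.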

Molecule	Specific OTA detoxification activities in U/g at pH 6.0 [1] [U/g]	Specific OTA detoxification activities in U/g at pH 7.5 [1] [U/g]	T50 (temperature at which 50% of the initial activity was maintained) [2]	Specific OTA detoxification activities in % compared to the enzyme of SEQ ID NO: 2, pH 6.0 [1] [%]	Specific OTA detoxification activities in % compared to the enzyme of SEQ ID NO: 2, pH 7.5 [1] [%]
18 (protein, polypeptide 4) MPPMRTRTRILTASLALLAANAWAADAMPSTPHTVVLRAARMFDGASGKLVEHPQLTIVGNKIVRVAQDDKAAVPAGADVIDLGDATLLPGFIDAHVHLSGQSSDNWYGDFFDNMMRFPAEQALYGAWYARITLEAGFTSVRDVGSTDWIALGLRNAIDAGKVPGPRMLVSNYAIGSTGGHADQDPIPPQKLAPAGPLQGVCNGPDECRAAVRYQIKYGANVIKFMPSGGVLSLSDPVDAPELTQEEMNAVVGEAHAWGRKVAAHAHGDKAAKMAVAAGVDSIEHGSFLEDDTLRMMKAKGVYLVPTISAVMHVEEKIATFPPVIAEKGRAAAAHVRQTFRHAVQIGVPIALGTDAGVGAHGTNAREFRYMVDNGMAPAQALLAGTSNAARLLGTIDRVGTLEAGKLADVVAVPGNPVADITVTERPVFVMKDGVVVRRGAVR	39.30	147.14	81-83 °C		
2 (protein, polypeptide 2) MYSLAIRNGIVFDGEKFIGKTNIYVDGDKIVKITNERLDAKEEVNAEGYFVMPGLIDAHLHLTGIRGGSLLMGYLLDDPRTRLLRAANWARELLMAGFTTVRDCGEPNSIILRNAINEGIIPGPRIIAAGSPITQTFGHAELSHSLPLEWSIQLGFGEICDGVDECIKAARKVLRSGADFIKIMATGGVLSERDRPEWPQLTPEEMSAIVREAEKVGTYVAAHAHGDKGARIAVEAGVRTIEHGSLITEETVKLMAEKGVSLTPTLSIQELIYKYGKQMGIDPWGLEKIGQVREGVINSIKLARKYGVMILAGTDLGFKTGLDIDMGKNWVEVKLLVELGGLSSEEALRAATGNASKMLRLNTGIIREGYLADIVLINGNPLENINDIARVSTVIKGGKVTVENGKLI	0.61	0.73	>95 °C		
45 (protein, exemplary polypeptide) MYSLAIRNGIVFDGEKFIGKTNIYVDGDKIVKITNERLDAKEEVNAEGYFVMPGLIDAHLHLTGIRGGSLLMGYLLDDPRTRLLRAANWARELLMAGFTTVRDCGEPNSIILRNAINEGIIPGPRIIAAGSPITQTFGHAELSHSLPLEWSIQLGFGEICDGVDECIKAARKVLRSGADFIKIMATGGVLSERDRPEWPQLTPEEMSAIVREAEKVGTYVAAHAHGDKGARIAVEAGVRTIEHGSLITEETVKLMAEKGVSLTPTLSIQELIYKFGKQMGIDPWGLEKIGQVREGVINSIKLARKYGVMILAGTDLGFKTGLDIDMGKNWVEVKLLVELGGLSSEEALRAATGNASKMLRLNTGIIREGYLADIVLINGNPLENINDIARVSTVIKGGKVTVENGKLI			>99 °C	168.00	138.00
41 (protein, exemplary polypeptide) MYSLAIRNGIVFDGEKFIGKTNIYVDGDKIVKITNERLDAKEEVNAEGYFVMPGLIDAHLHLTGIRGGSLLMGYLLDDPRTRLLRAANWARELLMAGFTTVRDCGEPNSIILRNAINEGIIPGPRIIAAGSPITQTFGHAELSHSLPLEWSIQLGFGEICDGVDECIKAARKVLRSGADFIKIMATGGVLSERDRPEWPQLTPEEMSAIVREAEKVGTYVAAHAHGDKGARIAVEAGVRTIEHGSLITEETVKLMAEKGVSLTPTLSIQELIYKVGKQMGIDPWGLEKIGQVREGVINSIKLARKYGVMILAGTDLGFKTGLDIDMGKNWVEVKLLVELGGLSSEEALRAATGNASKMLRLNTGIIREGYLADIVLINGNPLENINDIARVSTVIKGGKVTVENGKLI			99 °C	272.00	1551.00
44 (protein, exemplary polypeptide) MYSLAIRNGIVFDGEKFIGKTNIYVDGDKIVKITNERLDAKEEVNAEGYFVMPGLIDAHLHLTGIRGGSLLMGYLLDDPRTRLLRAANWARELLMAGFTTVRDCGEPNSIILRNAINEGIIPGPRIIAAGSPITQTFGHAELSHSLPLEWSIQLGFGEICDGVDECIKAARKVLRSGADFIKIMATGGVLSERDRPEWPQLTPEEMSAIVREAEKVGTYVAAHAHGDKGARIAVEAGVRTIEHGSLITEETVKLMAEKGVSLTPTLSIQELVYKYGKQMGIDPWGLEKIGQVREGVINSIKLARKYGVMILAGTDLGFKTGLDIDMGKNWVEVKLLVELGGLSSEEALRAATGNASKMLRLNTGIIREGYLADIVLINGNPLENINDIARVSTVIKGGKVTVENGKLI			>99 °C	84.00	84.00
40 (protein, exemplary polypeptide) MYSLAIRNGIVFDGEKFIGKTNIYVDGDKIVKITNERLDAKEEVNAEGYFVMPGLIDAHLHLTGIRGGSLLMGYLLDDPRTRLLRAANWARELLMAGFTTVRDCGEPNSIILRNAINEGIIPGPRIIAAGSPITQTFGHAELSHSLPLEWSIQLGFGEICDGVDECIKAARKVLRSGADFIKIMATGGVLSERDRPEWPQLTPEEMSAIVREAEKVGTYVAAHAHGDKGARIAVEAGVRTIEHGSLITEETVKLMAEKGVSLTPTLSIIELIYKYGKQMGIDPWGLEKIGQVREGVINSIKLARKYGVMILAGTDLGFKTGLDIDMGKNWVEVKLLVELGGLSSEEALRAATGNASKMLRLNTGIIREGYLADIVLINGNPLENINDIARVSTVIKGGKVTVENGKLI			>99 °C	15.00	61.00
42 (protein, exemplary polypeptide) MYSLAIRNGIVFDGEKFIGKTNIYVDGDKIVKITNERLDAKEEVNAEGYFVMPGLIDAHLHLTGIRGGSLLMGYLLDDPRTRLLRAANWARELLMAGFTTVRDCGEPNSIILRNAINEGIIPGPRIIAAGSPITQTFGHAELSHSLPLEWSIQLGFGEICDGVDECIKAARKVLRSGADFIKIMATGGVLSERDRPEWPQLTPEEMSAIVREAEKVGTYVAAHAHGDKGARIAVEAGVRTIEHGSLITEETVKLMAEKGVSLTPTLSIQELIYKYGKQMGIDPWGLEKIGQVREGVINSIKLARKYGVMILAGTDLGVKTGLDIDMGKNWVEVKLLVELGGLSSEEALRAATGNASKMLRLNTGIIREGYLADIVLINGNPLENINDIARVSTVIKGGKVTVENGKLI			>99 °C	131.00	595.00
43 (protein, exemplary polypeptide) MYSLAIRNGIVFDGEKFIGKTNIYVDGDKIVKITNERLDAKEEVNAEGYFVMPGLIDAHLHLTGIRGGSLLMGYLLDDPRTRLLRAANWARELLMAGFTTVRDCGEPNSIILRNAINEGIIPGPRIIAAGSAITQTFGHAELSHSLPLEWSIQLGFGEICDGVDECIKAARKVLRSGADFIKIMATGGVLSERDRPEWPQLTPEEMSAIVREAEKVGTYVAAHAHGDKGARIAVEAGVRTIEHGSLITEETVKLMAEKGVSLTPTLSIQELIYKYGKQMGIDPWGLEKIGQVREGVINSIKLARKYGVMILAGTDLGFKTGLDIDMGKNWVEVKLLVELGGLSSEEALRAATGNASKMLRLNTGIIREGYLADIVLINGNPLENINDIARVSTVIKGGKVTVENGKLI			>99 °C	46.00	19.00
39 (protein, exemplary polypeptide) MYSLAIRNGIVFDGEKFIGKTNIYVDGDKIVKITNERLDAKEEVNAEGYFVMPGLIDAHLHLTGIRGGSLLMGYLLDDPRTRLLRAANWARELLMAGFTTVRDCGEPNSIILRNAINEGIIPGPRIIAAGSPITQTFGHAELSHSLPLEWSIQLGFGEICDGVDECIKAARKVLRSGADFIKIMATGGVLSERDRPEWPQLTPEEMSAIVREAEKVGTYVAAHAHGDKGARIAVEAGVRTIEHGSLITEETVKLMAEKGVSLTPTLSAQELIYKYGKQMGIDPWGLEKIGQVREGVINSIKLARKYGVMILAGTDLGFKTGLDIDMGKNWVEVKLLVELGGLSSEEALRAATGNASKMLRLNTGIIREGYLADIVLINGNPLENINDIARVSTVIKGGKVTVENGKLI			>99 °C	8.00	15.00
17 (protein, polypeptide 3) MTTRLRILTASLALLAANACAADAAPSTPHTVVLRAARMFDGASGKIVEHPQLTIVGNKIVRIAQGKEEDNRTGIPAGADVIDLGDATLLPGFIDAHVHLSGQSSDNWYGDFFDNMMRFPAEQALYGAYYARITLEAGFTSVRDVGSTDWIALGLRNAIDAGKVPGPRMLVSNYAVGSTGGHADQDPIPPQKLAPAGPLQGVCNGPEECRAAVRYQIKYGANVIKFMPSGGVLSLSDPVDAPELSQDEMNAVIGEAHAWGRKVAAHAHGDKAAKMAVTAGVDSIEHGSFLEDDTLRMMKAKGVYLVPTISAIAHVEEKIATFPSVIAEKGRAAASHSRQMFRHAVQIGVPIALGTDAGVGAHGTNAREFRYMVDNGLTPAQSLMAGTANAARLLGTFDRVGTLEAGKLADVVAVPGNPIADITVTERPVFVMKDGVVVRRGAVR	11.65	28.44	65-75 °C		
